Reference: patent US20150239990A1 (published 2015)

Assays:
neutravidin = target: T1, neutravidin (UniProt P02701 25-152); assay: phage ELISA on neutravidin coated wells, anti-M13-HRP detection
T1 construct: Capture reagent of the phage ELISA; Wells without biotinylated IL-1Beta served as the negative control
Method: (§1) Four clones for each Fab were tested to overcome clonal variation (due to bacterial growth, phage production efficiency and toxicity etc. . . . ). Phage ELISA was performed by capturing of biotinylated IL-1Beta on neutravidin coated Maxisorp plate and subsequent incubation of crude phage extract (i.e. bacterial medium). After extensive washing, bound phages were detected with an anti-M13-HRP monoclonal antibody.

[1] = target: T2, biotinylated human IL-1Beta (human, UniProt P01584 117-269, biotinylated (positions not stated)); assay: phage ELISA: biotinylated IL-1Beta captured on neutravidin, crude phage, anti-M13-HRP
T2 construct: In the assays it was biotinylated; also called biot-IL-1Beta
Method: as §1

[2] = target: T2, biotinylated human IL-1Beta; assay: phage display selection and phage ELISA on biotinylated IL-1Beta
[3] = target: T2, biotinylated human IL-1Beta; assay: ELISA: Fab captured on anti-myc plate, biotinylated human IL-1Beta, streptavidin-HRP
Method: For this the Fabs were captured on an anti-myc coated Maxisorp plate. Biotinylated human IL-1Beta was added and bound cytokine was detected using HRP-conjugated streptavidin.
The purified llama and chimeric 1E2 Fabs described above were captured on anti-myc coated maxisorp plates. After incubation with biotinylated human IL-1Beta and extensive washing, the biotinylated IL-1Beta bound to the Fab was detected using HRP-conjugated streptavidin.

T1 sequence (P02701 25-152): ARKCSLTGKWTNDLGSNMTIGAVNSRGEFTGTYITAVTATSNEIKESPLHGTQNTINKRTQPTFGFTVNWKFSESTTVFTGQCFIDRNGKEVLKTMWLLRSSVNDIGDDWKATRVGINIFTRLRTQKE

Binder | binding result (neutravidin) | other results
safe variant 1F2 (partially humanized, fused to human C-lambda and CH1), Fab displayed on phage (Fab, V domains shown, also called safe 1F2) VH: EVQLLESGGGLVQPGGSLRLSCAASGFTFSTYAMSWVRQAPGKGPEWVSGINTGGGSTGYADSVKGRFTISRDNSKNTLYLQMNSLRPEDTAVYYCAKDWMATTPWGQGTQVTVSS VL: QTVVTQEPSFSVSPGGTVTLTCGLSSGSVTTNNYPGWFQQTPGQAPRTLIYNTNNRHSGVPSRFSGSILGNKAALTITGAQADDESDYYCALYMSSGSNNAVFGGGTKLTVLG | no binding | –
wt 1F2 (llama VL and VH fused to human C-lambda and CH1), Fab displayed on phage (Fab, V domains shown, Tested as a gene3-Fab fusion on phage (crude phage extract)) VH: EVQLVESGGGLVQPGGSLRLSCAASGFTFSTYAMSWVRQAPGKGPEWVSGINTGGGSTGYADSVKGRFTISRDNAKNTLYLQMNSLKPEDTAVYYCAKDWMATTPWGQGTQVTVSS VL: QAVVTQEPSLSVSPGGTVTLTCGLSSGSVTTNNYPGWFQQTPGQAPRTLIYNTNNRHSGVPSRFSGSISGNKAALTITGAQPEDEADYYCALYMSSGSNNAVFGGGTHLTVLG | no binding | –
hum 1F2 (fully humanized VL and VH fused to human C-lambda and CH1), Fab displayed on phage (Fab, V domains shown, Tested as a gene3-Fab fusion on phage) VH: EVQLLESGGGLVQPGGSLRLSCAASGFTFSTYAMSWVRQAPGKGLEWVSGINTGGGSTGYADSVKGRFTISRDNSKNTLYLQMNSLRAEDTAVYYCAKDWMATTPWGQGTLVTVSS VL: QTVVTQEPSFSVSPGGTVTLTCGLSSGSVTTNNYPGWYQQTPGQAPRTLIYNTNNRSSGVPDRFSGSILGNKAALTITGAQADDESDYYCALYMSSGSNNAVFGGGTKLTVLG | no binding | binding result [1]: binds
Fab 1F2 (llama Fab selected against IL-1Beta) (Fab, V domains shown, Original clone from the llama Fab phage library) VH: EVQLVESGGGLVQPGGSLRLSCAASGFTFSTYAMSWVRQAPGKGPEWVSGINTGGGSTGYADSVKGRFTISRDNAKNTLYLQMNSLKPEDTAVYYCAKDWMATTPWGQGTQVTVSS VL: QAVVTQEPSLSVSPGGTVTLTCGLSSGSVTTNNYPGWFQQTPGQAPRTLIYNTNNRHSGVPSRFSGSISGNKAALTITGAQPEDEADYYCALYMSSGSNNAVFGGGTHLTVLG | – | binding result [2]: binds
chimeric 1E2 Fab (llama VL and VH of 1E2 fused to human C-lambda and CH1) (Fab, V domains shown, Purified from E. coli (pCB5, no gene3); Myc and hexahistidine tags on the Fd; also called wt 1E2) VH: EVQLVESGGGLVQPGGSLRLSCTASGFTFSNYWMYWVRQAPGKGLEWVSAINAAGSTYYADSVKGRFTISRDNAKNTLYLQMNSLQSEDTALYYCANLPRWGQGTQVTVSS VL: QTVVTQEPSLSVSPGGTVTLTCGLSSGSVTSGNYPGWYQQKPGQAPRTLIYNTNSRYSGVPNRFSGSISGNKAALTITGAQPEDEADYYCAVYIGSSSYPVVFGGGTHLTVLG | – | binding result [3]: binds
hum 1E2 (fully humanized VL and VH fused to human C-lambda and CH1), Fab displayed on phage (Fab, V domains shown, Tested as a gene3-Fab fusion on phage) VH: EVQLVESGGGLVQPGGSLRLSCAASGFTFSNYWMYWVRQAPGKGLEWVSAINAAGSTYYADSVKGRFTISRDNSKNTLYLQMNSLRAEDTAVYYCANLPRWGQGTLVTVSS VL: QTVVTQEPSFSVSPGGTVTLTCGLSSGSVTSGNYPGWYQQTPGQAPRTLIYNTNSRSSGVPDRFSGSILGNKAALTITGAQADDESDYYCAVYIGSSSYPVVFGGGTKLTVLG | no binding | –
wt 1E2 (llama VL and VH fused to human C-lambda and CH1), Fab displayed on phage (Fab, V domains shown, Tested as a gene3-Fab fusion on phage) VH: EVQLVESGGGLVQPGGSLRLSCTASGFTFSNYWMYWVRQAPGKGLEWVSAINAAGSTYYADSVKGRFTISRDNAKNTLYLQMNSLQSEDTALYYCANLPRWGQGTQVTVSS VL: QTVVTQEPSLSVSPGGTVTLTCGLSSGSVTSGNYPGWYQQKPGQAPRTLIYNTNSRYSGVPNRFSGSISGNKAALTITGAQPEDEADYYCAVYIGSSSYPVVFGGGTHLTVLG | no binding | –
wild type llama 1E2 Fab (Fab, V domains shown, Produced from phagemid pCB3; Hexahistidine and myc tags at the C-terminus of the Fd; Captured by anti-myc; also called Fab 1E2) VH: EVQLVESGGGLVQPGGSLRLSCTASGFTFSNYWMYWVRQAPGKGLEWVSAINAAGSTYYADSVKGRFTISRDNAKNTLYLQMNSLQSEDTALYYCANLPRWGQGTQVTVSS VL: QTVVTQEPSLSVSPGGTVTLTCGLSSGSVTSGNYPGWYQQKPGQAPRTLIYNTNSRYSGVPNRFSGSISGNKAALTITGAQPEDEADYYCAVYIGSSSYPVVFGGGTHLTVLG | – | binding result [2]: binds
Fab 1E2 wt VL / hum VH (with human CL and human CH1) (Fab, V domains shown, Purified from E. coli; also called wt/hum; wt VA/hum VH) VH: EVQLVESGGGLVQPGGSLRLSCAASGFTFSNYWMYWVRQAPGKGLEWVSAINAAGSTYYADSVKGRFTISRDNSKNTLYLQMNSLRAEDTAVYYCANLPRWGQGTLVTVSS VL: QTVVTQEPSLSVSPGGTVTLTCGLSSGSVTSGNYPGWYQQKPGQAPRTLIYNTNSRYSGVPNRFSGSISGNKAALTITGAQPEDEADYYCAVYIGSSSYPVVFGGGTHLTVLG | – | binding result [3]: binds
safe variant 1E2 (partially humanized, fused to human C-lambda and CH1), Fab displayed on phage (Fab, V domains shown, also called safe 1E2) VH: EVQLVESGGGLVQPGGSLRLSCAASGFTFSNYWMYWVRQAPGKGLEWVSAINAAGSTYYADSVKGRFTISRDNSKNTLYLQMNSLQSEDTAVYYCANLPRWGQGTQVTVSS VL: QTVVTQEPSFSVSPGGTVTLTCGLSSGSVTSGNYPGWYQQKPGQAPRTLIYNTNSRSSGVPDRFSGSILGNKAALTITGAQPDDESDYYCAVYIGSSSYPVVFGGGTHLTVLG | no binding | –
Fab 1E2 wt VL / safe VH (with human CL and human CH1) (Fab, V domains shown, Purified from E. coli; also called wt/safe; wt VA/safe VH) VH: EVQLVESGGGLVQPGGSLRLSCAASGFTFSNYWMYWVRQAPGKGLEWVSAINAAGSTYYADSVKGRFTISRDNSKNTLYLQMNSLQSEDTAVYYCANLPRWGQGTQVTVSS VL: QTVVTQEPSLSVSPGGTVTLTCGLSSGSVTSGNYPGWYQQKPGQAPRTLIYNTNSRYSGVPNRFSGSISGNKAALTITGAQPEDEADYYCAVYIGSSSYPVVFGGGTHLTVLG | – | binding result [3]: binds
